# B1: Interleukin-1 receptor-associated kinase 4 (Mus musculus), Q8R4K2 (parent)
# chain: MNKPLTPSTYIRNLNVGILRKLSDFIDPQEGWKKLAVAIKKPSGDDRYNQFHIRRFEALLQTGKSPTCELLFDWGTTNCTVGDLVDLLVQIELFAPATLLLPDAVPQTVKSLPPREAATVAQTHGPCQEKDRTSVMPMPKLEHSCEPPDSSSPDNRSVESSDTRFHSFSFHELKSITNNFDEQPASAGGNRMGEGGFGVVYKGCVNNTIVAVKKLGAMVEISTEELKQQFDQEIKVMATCQHENLVELLGFSSDSDNLCLVYAYMPNGSLLDRLSCLDGTPPLSWHTRCKVAQGTANGIRFLHENHHIHRDIKSANILLDKDFTAKISDFGLARASARLAQTVMTSRIVGTTAYMAPEALRGEITPKSDIYSFGVVLLELITGLAAVDENREPQLLLDIKEEIEDEEKTIEDYTDEKMSDADPASVEAMYSAASQCLHEKKNRRPDIAKVQQLLQEMSA
# partner: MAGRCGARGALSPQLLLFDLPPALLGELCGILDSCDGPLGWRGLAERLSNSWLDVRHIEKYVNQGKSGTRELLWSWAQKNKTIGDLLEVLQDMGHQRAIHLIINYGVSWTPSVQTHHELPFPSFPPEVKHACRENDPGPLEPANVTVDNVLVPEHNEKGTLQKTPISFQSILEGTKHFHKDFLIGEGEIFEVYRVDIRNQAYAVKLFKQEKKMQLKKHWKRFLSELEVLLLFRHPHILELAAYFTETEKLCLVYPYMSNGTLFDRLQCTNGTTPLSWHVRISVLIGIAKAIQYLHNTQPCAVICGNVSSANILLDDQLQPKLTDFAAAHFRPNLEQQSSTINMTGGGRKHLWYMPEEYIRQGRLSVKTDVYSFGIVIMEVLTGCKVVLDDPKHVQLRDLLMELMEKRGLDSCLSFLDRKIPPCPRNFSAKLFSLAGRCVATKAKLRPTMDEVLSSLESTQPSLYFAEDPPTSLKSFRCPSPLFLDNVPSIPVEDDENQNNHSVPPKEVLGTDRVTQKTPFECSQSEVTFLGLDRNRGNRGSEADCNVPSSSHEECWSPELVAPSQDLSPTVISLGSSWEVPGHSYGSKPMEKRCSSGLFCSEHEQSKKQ
# B2: Interleukin-1 receptor-associated kinase 3 (Mus musculus), Q8K4B2 (parent)
# chain: B1 partner
# partner: B1 chain
# B3: Interleukin-1 receptor-associated kinase 3 (Mus musculus), Q8K4B2 (parent)
# chain: B1 partner
# partner: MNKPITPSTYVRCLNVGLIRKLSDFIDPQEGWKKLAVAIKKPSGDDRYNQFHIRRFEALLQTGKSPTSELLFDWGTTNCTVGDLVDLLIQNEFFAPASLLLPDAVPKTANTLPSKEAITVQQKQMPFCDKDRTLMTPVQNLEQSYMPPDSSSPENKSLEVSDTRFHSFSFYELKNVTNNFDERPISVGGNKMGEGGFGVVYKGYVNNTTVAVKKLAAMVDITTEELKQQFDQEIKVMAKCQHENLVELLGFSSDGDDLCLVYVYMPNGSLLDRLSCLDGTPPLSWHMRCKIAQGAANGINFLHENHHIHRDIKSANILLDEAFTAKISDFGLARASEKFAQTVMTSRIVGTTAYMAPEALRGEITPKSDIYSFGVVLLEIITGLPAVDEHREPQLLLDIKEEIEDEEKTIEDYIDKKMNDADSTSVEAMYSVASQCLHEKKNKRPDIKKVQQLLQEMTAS
# Variants of: B1
# Conditions: with irak3_mouse Irak3, Q8K4B2
row,Variant,effect of a mutation on the interaction
1,MNKPLTPSTYIRNLNVGILRKLSDDIDPQEGWKKLAVAIKKPSGDDRYNQFHIRRFEALLQTGKSPTCELLFDWGTTNCTVGDLVDLLVQIELFAPATLLLPDAVPQTVKSLPPREAATVAQTHGPCQEKDRTSVMPMPKLEHSCEPPDSSSPDNRSVESSDTRFHSFSFHELKSITNNFDEQPASAGGNRMGEGGFGVVYKGCVNNTIVAVKKLGAMVEISTEELKQQFDQEIKVMATCQHENLVELLGFSSDSDNLCLVYAYMPNGSLLDRLSCLDGTPPLSWHTRCKVAQGTANGIRFLHENHHIHRDIKSANILLDKDFTAKISDFGLARASARLAQTVMTSRIVGTTAYMAPEALRGEITPKSDIYSFGVVLLELITGLAAVDENREPQLLLDIKEEIEDEEKTIEDYTDEKMSDADPASVEAMYSAASQCLHEKKNRRPDIAKVQQLLQEMSA [F25D],decreasing interaction

# Variants of: B2
# Conditions: with irak4_mouse Irak4, Q8R4K2
row,Variant,effect of a mutation on the interaction
1,E71A,decreasing interaction

# Variants of: B2
# Conditions: with irak4_mouse Irak4, Q8R4K2
# Remark: another data set of the same source
row,Variant,effect of a mutation on the interaction
1,W74A,disrupting interaction

# Variants of: B2
# Conditions: with irak4_mouse Irak4, Q8R4K2
# Remark: another data set of the same source
row,Variant,effect of a mutation on the interaction
1,E71A;Q78G,disrupting interaction

# Variants of: B2
# Conditions: with irak4_mouse Irak4, Q8R4K2
# Remark: another data set of the same source
row,Variant,effect of a mutation on the interaction
1,Q78G,decreasing interaction

# Variants of: B3
# Conditions: with irak4_human IRAK4, Q9NWZ3
row,Variant,effect of a mutation on the interaction
1,W74A,disrupting interaction

# Variants of: B3
# Conditions: with irak4_human IRAK4, Q9NWZ3
# Remark: another data set of the same source
row,Variant,effect of a mutation on the interaction
1,E71A,decreasing interaction

# Variants of: B3
# Conditions: with irak4_human IRAK4, Q9NWZ3
# Remark: another data set of the same source
row,Variant,effect of a mutation on the interaction
1,E71A;Q78G,decreasing interaction

# Variants of: B3
# Conditions: with irak4_human IRAK4, Q9NWZ3
# Remark: another data set of the same source
row,Variant,effect of a mutation on the interaction
1,Q78G,decreasing interaction

# — IntAct's records for PubMed 23376919
